The values below come from the Immune Epitope Database (IEDB).

For assay [1], the target named is HLA-B*57:01. As to the kind of experiment: IEDB peptide-MHC binding, purified MHC/competitive/radioactivity; filed as Kd, often an IC50 or EC50 that approximates it; ≥ and ≤ were set here for values at or beyond the usual limits of such assays.
Assay [2] addresses HLA-A*03:01. As to the kind of experiment: IEDB peptide-MHC binding, purified MHC/competitive/fluorescence; ≥ and ≤ were set here for values at or beyond the usual limits of such assays.
For assay [3], the target named is HLA-B*15:01. The assay is described as above.
The next assay concerns the target HLA-A*24:02. Described as above.
The target in assay [4] is HLA-A*02:01. Described as above.
Assay [5] addresses HLA-A*11:01. The assay is described as above.
For the next assay, the target named is HLA-A*33:01. As to the kind of experiment: IEDB peptide-MHC binding, purified MHC/competitive/radioactivity; filed as Kd, often an IC50 or EC50 that approximates it; ≥ and ≤ were set here for values at or beyond the usual limits of such assays. The conditions noted are these: source organism: Vaccinia virus WR.
The next assay deals with HLA-A*31:01. The description is as above. The note with it: source organism: Vaccinia virus WR.
For a further assay, the target named is HLA-A*02:06. The description is as above. The note with it: source organism: Vaccinia virus WR.
The target in a further assay is HLA-B*35:01. The assay is described as above. The conditions noted are these: source organism: Vaccinia virus WR.
The target in another assay is HLA-B*54:01. The assay is described as above. The conditions noted are these: source organism: Vaccinia virus WR.
In a further assay the target is HLA-B*07:02. The description is as above. The conditions noted are these: source organism: Vaccinia virus WR.
Assay [6] deals with HLA-A*02:01. The description is as above. The note with it: source organism: Vaccinia virus WR.
In assay [7] the target is HLA-A*02:03. The assay is described as above. The note with it: source organism: Vaccinia virus WR.
For the next assay, the target named is HLA-A*02:02. The description is as above. The note with it: source organism: Vaccinia virus WR.
In the next assay the target is HLA-A*68:01. The description is as above. The note with it: source organism: Vaccinia virus WR.
The target in a further assay is HLA-B*51:01. The assay is described as above. The note with it: source organism: Vaccinia virus WR.
The next assay addresses HLA-B*53:01. Described as above. The conditions noted are these: source organism: Vaccinia virus WR.
For assay [8], the target named is HLA-A*11:01. Described as above. The note with it: source organism: Vaccinia virus WR.
The target of assay [9] is HLA-A*68:02. The description is as above. The note with it: source organism: Vaccinia virus WR.
Assay [10] addresses HLA-A*03:01. Described as above. The conditions noted are these: source organism: Vaccinia virus WR.
Assay [11] deals with HLA-A*02:01. As to the kind of experiment: IEDB peptide-MHC binding, purified MHC/competitive/fluorescence; filed as Kd, often an IC50 or EC50 that approximates it; ≥ and ≤ were set here for values at or beyond the usual limits of such assays. The conditions noted are these: source organism: Homo sapiens.
The target in assay [12] is HLA-A*02:03. The assay is described as above.
A further assay addresses HLA-A*69:01. Described as above. The conditions noted are these: source organism: Homo sapiens.
For the next assay, the target named is HLA-B*27:03. The description is as above. The conditions noted are these: source organism: Cryptosporidium parvum Iowa II.
Assay [13] deals with HLA-B*57:01. The assay is described as above. The note with it: source organism: Cryptosporidium parvum Iowa II.
Another assay has as its target HLA-A*26:01. Described as above. The note with it: source organism: Cryptosporidium parvum Iowa II.
The target in assay [14] is HLA-A*68:02. Described as above. The conditions noted are these: source organism: Cryptosporidium parvum Iowa II.
Assay [15] addresses HLA-A*03:01. The assay is described as above. The conditions noted are these: source organism: Cryptosporidium parvum Iowa II.
In assay [16] the target is HLA-B*15:01. The description is as above. The note with it: source organism: Cryptosporidium parvum Iowa II.
The next assay deals with HLA-B*39:01. The description is as above. The conditions noted are these: source organism: Cryptosporidium parvum Iowa II.
Another assay has as its target HLA-B*18:01. The description is as above. The conditions noted are these: source organism: Cryptosporidium parvum Iowa II.
The target in the next assay is HLA-B*46:01. Described as above. The note with it: source organism: Cryptosporidium parvum Iowa II.
In a further assay the target is HLA-A*01:01. Kind of assay: IEDB peptide-MHC binding, purified MHC/direct/fluorescence; filed as Kd, often an IC50 or EC50 that approximates it; ≥ and ≤ were set here for values at or beyond the usual limits of such assays. The note with it: source organism: Giardia lamblia ATCC 50803.
A further assay concerns the target HLA-A*29:02. Described as above. The note with it: source organism: Giardia lamblia ATCC 50803.
The mark [17] stands for this setting: source organism: Zaire ebolavirus.
Where [18] appears, read: source organism: Sudan ebolavirus.
The mark [19] stands for this setting: source organism: Vaccinia virus.
[20] abbreviates: source organism: Dengue virus 1 Brazil/97-11/1997.

As a reminder, the Kd is the free concentration of one partner at which half of the binding sites on the other are occupied at equilibrium, for simple one-to-one binding. FASGRKSITL: the Kd in the assay with HLA-B*57:01 [1] (source organism: Dengue virus 4 Philippines/H241/1956) is 6.17 µM.
With VVRLLTKPW, the Kd in the assay with HLA-B*57:01 [1] (source organism: Dengue virus 2 Jamaica/1409/1983) worked out at 0.0279 µM.
Regarding TTRLENVMW, the Kd in the assay with HLA-B*57:01 [1] (source organism: Dengue virus 4 Dominica/814669/1981) came to 0.0146 µM.
Usually IC50 stands for the point on the concentration scale where inhibition reaches its midpoint. A high value points to weaker potency in that assay. With KFMAILQHH, the IC50 with HLA-A*03:01 [2] (setting [17]) is not below 301 µM; with HLA-B*15:01 [3] (setting [17]), not below 327 µM; in the assay with HLA-A*24:02 (setting [17]), 16.6 µM.
With TIIGTNGNH, the IC50 with HLA-B*15:01 [3] (setting [18]) was not below 150 µM.
Turning to IALGVATAH, the IC50 in the assay with HLA-A*02:01 [4] (setting [17]) is not below 223 µM; in the assay with HLA-A*11:01 [5] (setting [17]), 10.8 µM; with HLA-A*03:01 [2] (setting [17]), not below 160 µM; with HLA-B*15:01 [3] (setting [17]), 61.1 µM.
As to SQGREAAVS, the IC50 with HLA-B*15:01 [3] (setting [17]) is 26.9 µM.
Turning to SSYYATSYL, the IC50 was 3.16 µM with HLA-A*02:01 [4] (setting [18]); 2.7 µM in the assay with HLA-A*11:01 [5] (setting [18]); 18.5 µM in the assay with HLA-A*03:01 [2] (setting [18]); 24.2 µM with HLA-B*15:01 [3] (setting [18]); 0.955 µM in the assay with HLA-A*24:02 (setting [18]).
TTRMENLLW: the Kd with HLA-B*57:01 [1] (source organism: Dengue virus 3 Martinique/1243/1999) is 0.00523 µM.
Take MMIQTRAAD: the IC50 in the assay with HLA-A*02:01 [4] (setting [19]) was not below 104 µM; in the assay with HLA-B*15:01 [3] (setting [19]), not below 77.2 µM.
Regarding LMLCLHHAY, the IC50 was 38.1 µM in the assay with HLA-A*02:01 [4] (setting [17]) and 22.3 µM with HLA-B*15:01 [3] (setting [17]).
With TTSQKTTWLP, the Kd with HLA-B*57:01 [1] (setting [20]) worked out at 0.446 µM.
Take SQIPSSSPT: the IC50 in the assay with HLA-A*02:01 [4] (setting [18]) amounted to 30 µM; in the assay with HLA-B*15:01 [3] (setting [18]), 8.51 µM.
In the case of KNKLYLVDY, the IC50 with HLA-B*15:01 [3] (source organism: Vaccinia virus WR) worked out at 34.2 µM.
EVVMAYVGIK: the Kd in the assay with HLA-A*33:01 is 1.17 µM; with HLA-A*31:01, 0.786 µM; with HLA-A*02:06, 15 µM; with HLA-B*35:01 it was not below 23.3 µM; with HLA-B*54:01, 7.93 µM; with HLA-B*07:02 it was 9.98 µM. Besides, the Kd in the assay with HLA-A*02:01 [6] is 4 µM; in the assay with HLA-A*02:03 [7] it was 15.9 µM; with HLA-A*02:02, 12 µM; in the assay with HLA-A*68:01, 0.00668 µM; with HLA-B*51:01, not below 23.2 µM; with HLA-B*53:01 it was 6.77 µM. The values for the dissociation constant Kd with HLA-A*11:01 [8], with HLA-A*68:02 [9] and in the assay with HLA-A*03:01 [10] were 0.0977 µM, 2.58 µM and 0.413 µM, respectively.
On to GTSGSPIVNR, for which the Kd with HLA-B*57:01 [1] (setting [20]) was 0.104 µM.
As for IRVEGNLRV, the Kd with HLA-A*02:01 [11], with HLA-A*02:03 [12] (source organism: Homo sapiens) and in the assay with HLA-A*69:01 was not below 20 µM in each case.
For the sequence KSWLVHWSL, the Kd was not below 20 µM with HLA-B*27:03; not below 20 µM with HLA-A*02:03 [12] (source organism: Cryptosporidium parvum Iowa II); 0.0328 µM in the assay with HLA-B*57:01 [13]; not below 20 µM with HLA-A*26:01; not below 20 µM with HLA-A*68:02 [14]; not below 20 µM in the assay with HLA-A*03:01 [15]. In addition, the Kd in the assay with HLA-B*15:01 [16], in the assay with HLA-B*39:01, with HLA-B*18:01 and in the assay with HLA-B*46:01 was not below 20 µM each time.
As for LTAHYCFLY, the Kd with HLA-A*01:01 is 0.007 µM; in the assay with HLA-A*29:02, not above 0.001 µM.
As for LLTACTIFYI, the Kd with HLA-A*33:01 is 7.39 µM; with HLA-A*02:06, 0.0558 µM; with HLA-B*35:01, not below 69.9 µM; with HLA-B*54:01, not below 27.6 µM; with HLA-B*07:02, not below 69.6 µM; with HLA-A*02:03 [7] it was 0.0118 µM. In addition, the Kd in the assay with HLA-A*02:02 was 0.00272 µM; with HLA-B*51:01, not below 69.6 µM; in the assay with HLA-B*53:01, not below 22.1 µM; with HLA-A*68:02 [9], 0.229 µM.
